Laboratory results taken from publication PMC9943652.

Molecular target: coreTFIIH (7-subunit: XPB, XPD, p62, p52, p44, p34, p8);XPG (human;human) (UniProt P19447+P18074+P32780+Q92759+Q13888+Q13889+Q6ZYL4+P28715)
Experiment: EMSA

Sequence	binding signal (fold lower Kd than XPG alone) (cholesterol moiety at N (between S12 and S13), position 11 from ss/ds junction)	binding signal (fold lower Kd than XPG alone) (cholesterol moiety at N (between S10 and S11), position 4 from ss/ds junction)
TTTTTTTTTTTTTTTTTTTTTTTTTTTTTNTTTTTTTTTTGCCTCGCTGCCGTCGCCA / TGGCGACGGCAGCGAGGC [Chol11]	8	
TTTTTTTTTTTTTTTTTTTTTTTTTTTTTTTTTTTTNTTTGCCTCGCTGCCGTCGCCA / TGGCGACGGCAGCGAGGC [Chol4]		7
